# B1: 抗PSMA单链抗体1 (scFv, V domains shown)
# VH: EVQLVESGGGVVQPGRSLRLSCAASGFTFSSYAMHWVRQAPGKGLEWVAVISYDGSNKYYADSVKGRFTISRDNSKNTLYLQMNSLRAEDTAVYYCARDYPLDDILTFPRVGTLDYWGQGTTVTVSS
# VL: EIVLTQSPLSLPVTPGEPASISCRSSQSLLHSNGYNYLGWYLQKPGQSPQLLIYLGSNRASGVPDRFSGSGSGTDFTLKISRVEAEDVGVYYCMQALQTGFTFGPGTKVEIK
# notes: Soluble scFv from a fully human phage library, made in E. coli TG1 and detected with APC anti 6XHis, so it carries a His tag; also called 抗体HTS0101; HTS0101
# Target: T1, 人PSMA抗原 (前列腺特异性膜抗原, prostrate specific membrane antigen) (human, UniProt Q04609 1-750)
# T1 construct: whole, on cells; it is treated here as the same protein; also called PSMA蛋白
# T1 sequence (Q04609 whole entry): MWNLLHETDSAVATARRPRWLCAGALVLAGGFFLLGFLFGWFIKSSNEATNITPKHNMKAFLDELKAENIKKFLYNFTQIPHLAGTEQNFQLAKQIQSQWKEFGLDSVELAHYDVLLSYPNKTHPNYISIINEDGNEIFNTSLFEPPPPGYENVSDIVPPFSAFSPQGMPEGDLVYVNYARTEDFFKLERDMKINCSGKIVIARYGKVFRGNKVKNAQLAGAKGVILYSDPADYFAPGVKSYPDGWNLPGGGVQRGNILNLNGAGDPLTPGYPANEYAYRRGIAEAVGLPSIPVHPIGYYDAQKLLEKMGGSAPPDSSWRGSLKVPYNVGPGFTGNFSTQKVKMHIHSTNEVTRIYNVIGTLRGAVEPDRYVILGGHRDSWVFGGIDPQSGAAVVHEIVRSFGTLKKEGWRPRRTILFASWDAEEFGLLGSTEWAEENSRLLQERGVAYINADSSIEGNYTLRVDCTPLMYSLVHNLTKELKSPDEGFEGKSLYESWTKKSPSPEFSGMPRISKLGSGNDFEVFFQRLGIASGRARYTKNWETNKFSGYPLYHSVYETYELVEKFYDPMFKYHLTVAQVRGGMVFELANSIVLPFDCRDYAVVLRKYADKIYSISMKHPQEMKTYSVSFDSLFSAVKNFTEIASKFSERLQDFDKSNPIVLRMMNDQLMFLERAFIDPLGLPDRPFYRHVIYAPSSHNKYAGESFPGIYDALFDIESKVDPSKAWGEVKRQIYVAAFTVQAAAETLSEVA
# Assay: FACS, scFv culture supernatant on 293T-PSMA cells, APC anti 6XHis secondary
binder,measurement,value
B1,binding result,binds

# From patent publication CN114075291A (THE FIRST AFFILIATED HOSPITAL OF NAVAL MEDICAL UNIV OF …, dated 2022)
